Results: patent publication US20160017353A1

Molecular target: EGF receptor (EGFR) (human) (UniProt P00533)
Assay: cell-based or functional assay

Substance “recombinant HSA-EGF fusion protein (human serum albumin fused to the N-terminal end of human EGF), secreted from transgenic rice cell line H-EGF 43 (from UniProt P02768 25-609) (ligand)” has an HK-2 cell proliferation (cell count), 150 ng/ml total rice medium protein (5 ng H-EGF) of 2.9 fold.
